Experimental data as given in patent US20240199740A1 (Ablynx, published 2024).

How the values were obtained:
[1] = molecular target: T1, human CD123 expressed on cells (human, UniProt P26951 19-378); experiment: flow cytometry, KG1a cells
T1 construct: the cell line is named under assay; also called huCD123; IL-3Rα

[2] = molecular target: T1, human CD123 expressed on cells; experiment: flow cytometry, MOLM-13 cells
[3] = molecular target: T2, recombinant human CD123 protein (R&D Systems, 301-R3/CF) (human, UniProt P26951 19-305); experiment: SPR (ProteOn XPR36), CD123 immobilized
T2 construct: Bought recombinant His-tagged extracellular domain of human CD123; also called recombinant CD123; in house biotinylated-CD123 recombinant protein; not shown: His tag of the bought protein
T2 sequence: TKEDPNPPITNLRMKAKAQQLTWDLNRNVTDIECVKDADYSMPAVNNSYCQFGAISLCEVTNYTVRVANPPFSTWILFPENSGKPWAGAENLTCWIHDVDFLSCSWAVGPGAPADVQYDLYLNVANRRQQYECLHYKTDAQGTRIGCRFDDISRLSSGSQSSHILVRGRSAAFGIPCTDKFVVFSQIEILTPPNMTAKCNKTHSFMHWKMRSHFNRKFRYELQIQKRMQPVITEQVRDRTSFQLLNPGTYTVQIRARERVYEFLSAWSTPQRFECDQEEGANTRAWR

[4] = molecular target: T1, human CD123 expressed on cells; experiment: flow cytometry, CHO Flp-In huCD123 transfected cells
[5] = molecular target: T3, cynomolgus CD123 expressed on HEK Flp-In cells (cynomolgus); experiment: flow cytometry, HEK Flp-In cyCD123 transfected cells
T3 construct: EHH61867.1; also called cyCD123; cyno CD123
T3 chain: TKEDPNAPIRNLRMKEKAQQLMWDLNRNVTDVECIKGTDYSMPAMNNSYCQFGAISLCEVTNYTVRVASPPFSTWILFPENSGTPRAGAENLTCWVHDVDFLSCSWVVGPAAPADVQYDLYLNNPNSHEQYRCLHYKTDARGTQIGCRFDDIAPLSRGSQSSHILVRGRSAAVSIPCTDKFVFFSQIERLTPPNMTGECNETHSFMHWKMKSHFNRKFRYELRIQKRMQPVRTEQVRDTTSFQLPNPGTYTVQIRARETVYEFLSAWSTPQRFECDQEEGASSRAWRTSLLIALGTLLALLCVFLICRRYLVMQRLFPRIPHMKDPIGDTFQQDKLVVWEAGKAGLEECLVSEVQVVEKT

[6] = molecular target: T1, human CD123 expressed on cells; experiment: flow cytometry competition, MOLM-13 cells, competitor APC-labelled antibody 7G3
[7] = molecular target: T1, human CD123 expressed on cells; experiment: flow cytometry competition, MOLM-13 cells, competitor A0110056A10-Alexa647 (0.7 nM)
[8] = molecular target: T1, human CD123 expressed on cells; experiment: cell-based or functional assay
[9] = molecular target: T1, human CD123 expressed on cells; experiment: cell-based or functional assay; remark: listed apart in the source
[10] = molecular target: cynomolgus TCR/CD3 expressed on cells (cynomolgus); experiment: cell-based or functional assay
[11] = molecular target: cynomolgus TCR/CD3 expressed on cells (cynomolgus); experiment: cell-based or functional assay; remark: listed apart in the source
[12] = molecular target: cynomolgus TCR/CD3 expressed on cells (cynomolgus); experiment: cell-based or functional assay; remark: listed apart in the source
[13] = molecular target: T1, human CD123 expressed on cells; experiment: cell-based or functional assay; remark: listed apart in the source
[14] = molecular target: T3, cynomolgus CD123 expressed on HEK …; experiment: cell-based or functional assay
[15] = molecular target: T1, human CD123 expressed on cells; experiment: cell-based or functional assay; remark: listed apart in the source
[16] = molecular target: T1, human CD123 expressed on cells; experiment: cell-based or functional assay; remark: listed apart in the source
[17] = molecular target: T1, human CD123 expressed on cells; experiment: cell-based or functional assay; remark: listed apart in the source
[18] = molecular target: T1, human CD123 expressed on cells; experiment: cell-based or functional assay; remark: listed apart in the source
[19] = molecular target: T1, human CD123 expressed on cells; experiment: cell-based or functional assay; remark: listed apart in the source
[20] = molecular target: T1, human CD123 expressed on cells; experiment: cell-based or functional assay; remark: listed apart in the source
[21] = molecular target: T4, cynomolgus TCR/CD3 expressed on cells (cynomolgus); experiment: flow cytometry competition, HSC-F cells, competitor T017000099 (500 nM)
T4 construct: whole, on cells; Native complex with CD3 chains; the cell type is named under assay or readout; also called cyno TCR/CD3; CD3/TCR expressed on HSC-F

[22] = molecular target: T1, human CD123 expressed on cells; experiment: flow cytometry competition, MOLM-13 cells, competitor A0110056A10-Alexa647 (0.4 nM)
[23] = molecular target: T1, human CD123 expressed on cells; experiment: flow cytometry competition, CHO Flp-In huCD123 cells, competitor A0110056A10-Alexa647 (0.9 nM)
[24] = molecular target: T3, cynomolgus CD123 expressed on HEK …; experiment: flow cytometry competition, HEK Flp-In cyCD123 cells, competitor A0110056A10-Alexa647 (0.9 nM)
[25] = molecular target: T1, human CD123 expressed on cells; experiment: flow cytometry, Alexa647-labelled Nanobody, MOLM-13 cells
[26] = molecular target: T1, human CD123 expressed on cells; experiment: as above; remark: listed apart in the source
[27] = molecular target: T1, human CD123 expressed on cells; experiment: flow cytometry, Alexa647-labelled Nanobody, CHO Flp-In huCD123 transfected cells
[28] = molecular target: T3, cynomolgus CD123 expressed on HEK …; experiment: flow cytometry, Alexa647-labelled Nanobody, HEK Flp-In cyCD123 transfected cells
[29] = molecular target: T1, human CD123 expressed on cells; experiment: flow cytometry, Alexa647-labelled Nanobody, CHO Flp-In human CD123 cells
[30] = molecular target: T1, human CD123 expressed on cells; experiment: as above; remark: listed apart in the source
[31] = molecular target: T3, cynomolgus CD123 expressed on HEK …; experiment: flow cytometry, Alexa647-labelled Nanobody, HEK Flp-In cynomolgus CD123 cells
[32] = molecular target: T2, recombinant human CD123 protein (R&D …); experiment: competition ELISA, coated antibody 7G3 as competitor, 4 nM biotinylated recombinant CD123
[33] = molecular target: T1, human CD123 expressed on cells; experiment: flow cytometry competition, CHO Flp-In human CD123 cells, competitor APC-labelled antibody 7G3
[34] = molecular target: T1, human CD123 expressed on cells; experiment: flow cytometry competition, CHO Flp-In human CD123 cells, competitor A0110056A10-Alexa647 (0.5 nM)

B1: A0110055F03 (VHH)
VHH: EVQLVESGGGLVQAGGPLRLSCAASGRTFSSYVMGWFRQAPGKEREFVAAIYWSNGKTQYTDSVKGRFTISGDNAKNTVYLQMNSLNPEDTAVYYCVADKDETGFRTLPIAYDYWGQGTQVTVSS
notes: Monovalent anti-CD123 Nanobody; also called A0110PMP055F03; A011005F03; not shown: C-terminal triple Flag, His6 tag
EC50 [1]: > 100 nM | EC50 [2]: > 100 nM | Kd [3]: 160 nM | koff [3]: 0.0039 s⁻¹ | kon [3]: 25000 M⁻¹ s⁻¹ | EC50 [4]: 5.94 nM | EC50 [5]: 2.53 nM | IC50 [6]: 480 nM | IC50 [7]: > 100 nM

B2: T017000139 (bispecific antibody)
chain: DVQLVESGGGLVQPGGSLRLSCVASGDVHKINFLGWYRQAPGKEREKVAHISIGDQTDYADSAKGRFTISRDESKNMVYLQMNSLKPEDTAVYFCRAFSRIYPYDYWGQGTLVTVSSGGGGSGGGGSGGGGSGGGGSGGGGSGGGGSGGGGSEVQLVESGGGLVQAGGPLRLSCAASGRTFSSYVMGWFRQAPGKEREFVAAIYWSNGKTQYTDSVKGRFTISGDNAKNTVYLQMNSLNPEDTAVYYCVADKDETGFRTLPIAYDYWGQGTLVTVSSGGGGSGGGGSGGGGSGGGGSGGGGSGGGGSGGGGSEVQLVESGGGLVQAGGSLRLSCAASGITSKINDMGWYRQTPGNYREWVASITATGTTNYRDSVKGRFTISRDNAKSTVYLQMNSLKPEDTTVYYCNTFPPISNFWGQGTLVTVSSA
notes: Multispecific Nanobody polypeptide expressed in Pichia; also called T013700139
% lysis, redirected human T cell mediated killing of MOLM-13 cells, flow cytometry, E:T 10:1 [8]: 29% | EC50 (M), redirected human T cell mediated killing of MOLM-13 cells, flow cytometry, E:T 10:1 [8]: 2e-11 M | % lysis, redirected human T cell mediated killing of KG1a cells, flow cytometry, E:T 10:1 [9]: 27% | EC50 (M), redirected human T cell mediated killing of KG1a cells, flow cytometry, E:T 10:1 [9]: 1.1e-10 M | % lysis, redirected cyno T cell mediated killing of MOLM-13 cells, flow cytometry, E:T 10:1 [10]: 55% | EC50 (M), redirected cyno T cell mediated killing of MOLM-13 cells, flow cytometry, E:T 10:1 [10]: 1.1e-11 M | % lysis, redirected cyno T cell mediated killing of KG1a cells, flow cytometry [11]: 42% | EC50 (M), redirected cyno T cell mediated killing of KG1a cells, flow cytometry [11]: 2.6e-11 M | EC50 (M) of CD25 upregulation on cynomolgus T cells during redirected killing of MOLM-13 cells, 72 h [12]: 6e-11 M | IC50 (M), redirected human T cell mediated killing of human CD123 transfected CHO Flp-In cells, xCELLigence, E:T 15:1, 50 h [13]: 2.4e-10 M | IC50 (M), redirected cynomolgus T cell mediated killing of cynomolgus CD123 transfected HEK Flp-In cells, xCELLigence, E:T 15:1, 80 h [14]: 1.1e-11 M | EC50 (M), IFN-γ secretion by cynomolgus T cells during killing of CD123 transfected adherent target cells [15]: 2.3e-09 M | EC50 (M), IFN-γ secretion by human T cells during killing of CD123 transfected adherent target cells [15]: 1e-09 M | EC50 (M), human IL-6 secretion during human T cell mediated killing of CD123 transfected adherent target cells [16]: 4.8e-10 M | EC50 (M), redirected cynomolgus T cell mediated killing of CD123 positive KG1a cells, flow cytometry, E:T 10:1 [17]: 1.7e-11 M | EC50 (M), redirected human T cell mediated killing of CD123 positive KG1a cells, flow cytometry, E:T 10:1 [17]: 8.1e-11 M | EC50 (M), redirected cynomolgus T cell mediated killing of CD123 positive MOLM-13 cells, flow cytometry, Experiment 1 [18]: 6e-11 M | EC50 (M), redirected cynomolgus T cell mediated killing of CD123 positive MOLM-13 cells, flow cytometry, Experiment 2 [18]: 3.1e-11 M | EC50 (M), redirected human T cell mediated killing of CD123 positive MOLM-13 cells, flow cytometry, Experiment 2 [18]: 3e-11 M | EC50 (M), human IFN-γ secretion during human T cell mediated killing of KG1a cells [19]: 3.2e-11 M | EC50 (M), human IFN-γ secretion during human T cell mediated killing of MOLM-13 cells [19]: 3.4e-10 M | EC50 (M), human IL-6 secretion during human T cell mediated killing of MOLM-13 cells [20]: 2.3e-11 M | IC50 [21]: 640 nM | IC50 [22]: 3.7 nM | IC50 [23]: 3.3 nM | IC50 [24]: 11 nM

B3: A0110056A10 (VHH)
VHH: EVQLVKSGGGLVQAGGSLRLSCAASGITSKINDMGWYRQTPGNYREWVASITATGTTNYRDSVKGRFTISRDNAKSTVYLQMNSLKPEDTTVYYCNTFPPISNFWGQGTLVTVSS
notes: Monovalent anti-CD123 Nanobody; also called A0110PMP056A10; A0110056A10-Alexa647; not shown: C-terminal triple Flag, His6 tag
EC50 [1]: 0.5 nM | EC50 [2]: 0.63 nM | Kd [3]: 1.5 nM | koff [3]: 0.00079 s⁻¹ | kon [3]: 530000 M⁻¹ s⁻¹ | EC50 (read off the curve) [25]: ~0.7 nM | EC50 (read off the curve) [26]: ~0.5 nM | IC50 [6]: 1.1 nM | EC50 [27]: 0.974 nM | EC50 [28]: 2.48 nM | EC50 (read off the curve) [29]: ~3 nM | EC50 (read off the curve) [30]: ~1 nM | IC50 [7]: 1.4 nM | IC50 [22]: 1.1 nM | EC50 (read off the curve) [31]: ~3 nM | IC50 [32]: 3.1 nM | IC50 [33]: 6.5 nM | IC50 [23]: 1.9 nM | IC50 [24]: 7 nM | IC50 [34]: 6.7 nM
